{"source": "patent US6740739B1", "about": "“Substitutional variants of APO-2 ligand” (Genentech, Inc., priority 1998, dated 2004)", "key": {"[1]": {"experiment": "Examination of infused animals for gross toxicity", "type": "in vivo, nude mice", "conditions": "E. coli-expressed Apo-2 ligand 10 mg/kg each day by mini-pump; Day 3", "description": "In the experiment, the nude mice were injected subcutaneously with HCT116 human colon carcinoma cells (ATCC CCL 247) (1×10^6 cells) on each side of the animal. The tumors were then allowed to grow to reach approximately 1 cm diameter (approximately 10 days). On Day 0, the tumor volume was measured with calipers. Volume was calculated as π/6×ab^2, where a=length and b=width. Then osmotic mini-pumps (available from Alza Corp., Model 1003) were implanted intraperitoncally into each animal. The mini-pumps were loaded with either (1) control vehicle (20 mM Tris pH 7.5, 8% Trehalose. 0.01% Tween-20) or (2) Apo-2 ligand. Five animals in each group received either the control vehicle or Apo-2 ligand. The mini-pumps were calibrated to deliver each day 10 mg/kg Apo-2 ligand (10 mg/ml×2 μl/hour) or 2 μl/hour control vehicle.\nOn Day 3, the tumor volume was again measured, and the animals were sacrificed. […] There was no change in tumor volume in the vehicle group, but a marked reduction in tumor size occurred in mice infused with the Apo-2L. The treatment with the Apo-2L shrunk the tumors by about 50% over 3 days."}, "[2]": {"system": "MDA231", "type": "cell-based, human", "description": "(§1) The following human tumor cell lines were assayed: A549 (lung carcinoma, ATCC CCL 185); HCT116 (colon carcinoma, ATCC CCL 247); SW480 (colon adenocarcinoma, ATCC CCL 228); MDA231 (breast adenocarcinoma, ATCC HTB 26); HeLa (cervical carcinoma, ATCC CCL 22); ME-180 (cervical carcinoma, ATCC HTB 33); T24 (bladder carcinoma. ATCC HTB 4); SK-N-AS (neuroblastoma, White et al., Proc. Natl. Acad. Sci., 92:5520-5524 (1995)). The cells were plated at 2.5×10^5 cells/ml in 96 well plates and incubated overnight. The cells were cultured in the presence of 2-fold dilutions of Apo-2 ligand (ranging from 100 ng/ml to 0.01 ng/ml). In some of the cultures, a chemotherapeuticagent was also added for 24 hours-cyclohexamide (“CHX”) (50 μg/ml; Sigma Chemicals), Doxorubicin (10-100 μg/ml; Pharmacia), or 5-FU (6 mg/ml; Roche). After 24 hours of incubation, the cells were stained with 0.5% crystal-violetin 20% methanol. Cell viability was determined by eluting the dye from the stained cells with 0.1M sodium citrate (0.1M citric acid in 50% methanol), and measuring absorbance at 540 nm."}, "[3]": {"system": "A549", "type": "cell-based, human", "description": "as §1"}, "[4]": {"system": "HCT116", "type": "cell-based, human", "description": "as §1"}, "[5]": {"system": "SW480", "type": "cell-based, human", "description": "as §1"}, "[6]": {"system": "T24", "experiment": "Cell viability by crystal violet staining", "type": "cell-based, human", "description": "as §1"}, "[7]": {"system": "ME-180", "experiment": "Cell viability by crystal violet staining", "type": "cell-based, human", "description": "as §1"}, "[8]": {"system": "9D cells", "experiment": "Apoptosis by FACS (PI / FITC-annexin V)", "type": "cell-based, human", "conditions": "Apo-2 ligand 3 μg/ml, 24 hours, control 22.5", "description": "Apoptotic activity of purified, soluble Apo-2 ligand (described in Example 3) was examined using several human lymphoid cell lines. In a first study, the effect of Apo-2 ligand on 9D cells (Genentech, Inc.), derived from Epstein-Barrvirus (EBV)-transformed human peripheral blood B cells, was examined. The 9D cells (5×10^4 cells/well in RPMI 1640 medium plus 10% fetal calf serum) were incubated for 24 hours with either a media control, Apo-2 ligand (3 μg/ml, prepared as described in Example 3 above), or anti-Apo-1 monoclonal antibody, CH11 (1 μg/ml) [described by Yonehara et al., J. Exp. Med., 169:1747-1756 (1989); commercially available from Medical and Biological Laboratories Co.]. […]\nThe effects of the Apo-2 ligand on the 9D cells, as well as on Raji cells (human Burkitt's lymphoma B cell line, ATCC CCL 86) and Jurkat cells (human acute T cell leukemia cell line, ATCC TIB 152) were further analyzed by FACS. […]\nThe 9D cells (FIG. 2B), Raji cells (FIG. 2C), and Jurkat cells (FIG. 2D) were incubated (1×10^6 cells/well) for 24 hours with a media control (left panels), Apo-2 ligand (3 μg/ml, prepared as described in Example 3) (center panels), or anti-Apo-1 ligand antibody, CH11 (1 μg/ml) (right panels). The cells were then washed, stained with PI and with fluorescein thiocyanate (FITC)-conjugatedannexin V (purchased from Brand Applications) and analyzed by flow cytometry. […]"}}, "data": [{"molecule": "Apo-2L: purified soluble His10-tagged human Apo-2 ligand, residues 114-281, from baculovirus-infected Sf9 cells (Example 3); used in Examples 4-14 (protein) MGHHHHHHHHHHSSGHIDDDDKHMVRERGPQRVAAHITGTRGRSNTLSSPNSKNEKALGRKINSWESSRSGHSFLSNLHLRNGELVIHEKGFYYIYSQTYFRFQEEIKENTKNDKQMVQYIYKYTSYPDPILLMKSARNSCWSKDAEYGLYSIYQGGIFELKENDRIFVSVTNEHLIDMDHEASFFGAFLVG", "values": [{"measurement": "gross evidence of toxicity", "setting": "[1]", "result": "did not reveal any gross evidence of toxicity"}, {"measurement": "Apo-2L sensitivity ENHANCED BY 5-FU", "setting": "[2]", "result": "yes"}, {"measurement": "Apo-2L sensitivity ENHANCED BY Dox", "setting": "[2]; MDA231, Doxorubicin 10-100 μg/ml, 24 hours", "result": "yes"}, {"measurement": "Apo-2L sensitivity ENHANCED BY CHX", "setting": "[2]; MDA231, cyclohexamide 50 μg/ml, 24 hours", "result": "yes"}, {"measurement": "Apo-2L SENSITIVITY", "setting": "[2]; MDA231 breast carcinoma, p53 mut, 24 h", "result": "++ (>70% death after 24 h with 100 ng/ml Apo-2L)"}, {"measurement": "Apo-2L sensitivity ENHANCED BY 5-FU", "setting": "[3]", "result": "yes"}, {"measurement": "Apo-2L sensitivity ENHANCED BY Dox", "setting": "[3]; A549, Doxorubicin 10-100 μg/ml, 24 hours", "result": "yes"}, {"measurement": "Apo-2L sensitivity ENHANCED BY CHX", "setting": "[3]; A549, cyclohexamide 50 μg/ml, 24 hours", "result": "yes"}, {"measurement": "Apo-2L SENSITIVITY", "setting": "[3]; A549 lung carcinoma, p53 WT, 24 h", "result": "++ (>70% death after 24 h with 100 ng/ml Apo-2L)"}, {"measurement": "Apo-2L sensitivity ENHANCED BY 5-FU", "setting": "[4]", "result": "yes"}, {"measurement": "Apo-2L sensitivity ENHANCED BY Dox", "setting": "[4]; HCT116, Doxorubicin 10-100 μg/ml, 24 hours", "result": "yes"}, {"measurement": "Apo-2L sensitivity ENHANCED BY CHX", "setting": "[4]; HCT116, cyclohexamide 50 μg/ml, 24 hours", "result": "yes"}, {"measurement": "Apo-2L SENSITIVITY", "setting": "[4]; HCT116 colon carcinoma, p53 mut, 24 h", "result": "++ (>70% death after 24 h with 100 ng/ml Apo-2L)"}, {"measurement": "Apo-2L sensitivity ENHANCED BY 5-FU", "setting": "[5]", "result": "yes"}, {"measurement": "Apo-2L sensitivity ENHANCED BY Dox", "setting": "[5]; SW480, Doxorubicin 10-100 μg/ml, 24 hours", "result": "yes"}, {"measurement": "Apo-2L sensitivity ENHANCED BY CHX", "setting": "[5]; SW480, cyclohexamide 50 μg/ml, 24 hours", "result": "yes"}, {"measurement": "Apo-2L SENSITIVITY", "setting": "[5]; SW480 colon carcinoma, p53 mut, 24 h", "result": "++ (>70% death after 24 h with 100 ng/ml Apo-2L)"}, {"measurement": "Apo-2L sensitivity ENHANCED BY Dox", "setting": "[6]; T24, Doxorubicin 10-100 μg/ml, 24 hours", "result": "yes"}, {"measurement": "Apo-2L sensitivity ENHANCED BY CHX", "setting": "[6]; T24, cyclohexamide 50 μg/ml, 24 hours", "result": "yes"}, {"measurement": "Apo-2L SENSITIVITY", "setting": "[6]; T24 bladder carcinoma, p53 mut, 24 h", "result": "+++ (>70% death after 24 h with 10 ng/ml Apo-2L)"}, {"measurement": "Apo-2L sensitivity ENHANCED BY Dox", "setting": "[7]; ME180, Doxorubicin 10-100 μg/ml, 24 hours", "result": "yes"}, {"measurement": "Apo-2L sensitivity ENHANCED BY CHX", "setting": "[7]; ME180, cyclohexamide 50 μg/ml, 24 hours", "result": "yes"}, {"measurement": "Apo-2L SENSITIVITY", "setting": "[7]; ME180 cervical carcinoma, p53 WT, 24 h", "result": "++ (>70% death after 24 h with 100 ng/ml Apo-2L)"}, {"measurement": "% apoptotic cells", "setting": "[8]", "result": 92.4, "unit": "%"}]}]}
